In the supplement of paper PMC6757056:
± gives the standard deviation of the averaged measurements.

B1: library; a variant is named by its letters at N, in order (parent)
chain: GCUGUCACCGGUGCUUGGUACGUUAUAUUCAGCCGGUCUGAUGAGUCUNNNNNNAGACGAAACAGC

What was measured:
(6R,S)-folinic acid [1] = variants of: B1; test: FACS-Seq fitted mean relative fluorescence mCherry/BFP without ligand (log10 relative fluorescence); HEK293T overexpressing SLC46A1; higher = higher reporter protein expression; conditions: without (6R,S)-folinic acid; ligand present: no
Method in brief: (§1)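 HEK293T libraries were lentivirally transduced with an mCherry reporter carrying the ribozyme switch and an EF1α-BFP marker, enriched, and incubated for 48 h with or without ligand before sorting into 6 bins by mCherry/BFP. Genomic DNA from each bin was PCR-amplified, barcoded and sequenced on MiSeq. Fluorescence is the fitted normal mean of the bin counts. The fit used log10(mCherry/BFP), and means were scaled to five spiked-in control ribozymes.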

(6R,S)-folinic acid [2] = variants of: B1; test: normalized RNA/DNA level without ligand (relative to sTRSVctl = 100) (log10 (% of sTRSVctl)); HEK293T overexpressing SLC46A1; higher = less ribozyme self-cleavage, higher mRNA level; conditions: without (6R,S)-folinic acid; ligand present: no
Method in brief: (§2)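 RNA level was computed as RNA reads over DNA reads divided by a spiked-in non-cleaving sequence or by the top sequences, then scaled and log-transformed. Scaling was ×100 with log10, the top group was 25 sequences, and the threshold was ≥100 DNA reads. The reads came from HEK293T cells transfected at 4 µg per 6-well well with ribozyme switch library plasmids (mCherry, or eGFP in some ligand experiments). Total RNA was extracted with EDTA 72 h after transfection, with any ligand added 1 h before it.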

(6R,S)-folinic acid [3] = variants of: B1; test: FACS-Seq fitted mean relative fluorescence mCherry/BFP with ligand (log10 relative fluorescence); HEK293T overexpressing SLC46A1; ligand concentration (+) FACS-Seq: 6 mM; higher = higher reporter protein expression; conditions: with (6R,S)-folinic acid; ligand present: yes
Method in brief: as §1

(6R,S)-folinic acid [4] = variants of: B1; test: normalized RNA/DNA level with ligand (relative to sTRSVctl = 100) (log10 (% of sTRSVctl)); HEK293T overexpressing SLC46A1; ligand concentration (+) RNA-Seq: 6 mM; higher = less ribozyme self-cleavage, higher mRNA level; conditions: with (6R,S)-folinic acid; ligand present: yes
Method in brief: as §2

Variant | FACS-Seq fitted mean (log10) ((6R,S)-folinic acid [1]) | normalized RNA/DNA level without ligand (log10) ((6R,S)-folinic acid [2]) | FACS-Seq fitted mean (log10) ((6R,S)-folinic acid [3]) | normalized RNA/DNA level with ligand (log10) ((6R,S)-folinic acid [4])
GCUGUCACCGGUGCUUGGUACGUUAUAUUCAGCCGGUCUGAUGAGUCUUGUAUCAGACGAAACAGC [UGUAUC] | -0.0452 ± 0.058 | 2.016 ± 0.019 | -0.247 ± 0.051 | 1.99 ± 0.028
GCUGUCACCGGUGCUUGGUACGUUAUAUUCAGCCGGUCUGAUGAGUCUUGUAUUAGACGAAACAGC [UGUAUU] | 0.438 ± 0.16 | 1.9737 ± 0.0017 | 0.253 ± 0.086 | 2.01 ± 0.032
GCUGUCACCGGUGCUUGGUACGUUAUAUUCAGCCGGUCUGAUGAGUCUUGUAUGAGACGAAACAGC [UGUAUG] | -0.0525 ± 0.085 | 1.707 ± 0.007 | 0.265 ± 0.086 | 1.96 ± 0.039
GCUGUCACCGGUGCUUGGUACGUUAUAUUCAGCCGGUCUGAUGAGUCUGGUAUGAGACGAAACAGC [GGUAUG] | 0.288 ± 0.015 | 1.986 ± 0.01 | 0.241 ± 0.14 | 2.01 ± 0.021
GCUGUCACCGGUGCUUGGUACGUUAUAUUCAGCCGGUCUGAUGAGUCUGGUAUAAGACGAAACAGC [GGUAUA] | 0.316 ± 0.031 | 1.987 ± 0.0071 | 0.271 ± 0.15 | 2 ± 0.032
GCUGUCACCGGUGCUUGGUACGUUAUAUUCAGCCGGUCUGAUGAGUCUCGUAUUAGACGAAACAGC [CGUAUU] | -0.147 ± 0.033 | 2.034 ± 0.011 | 0.0205 ± 0.0068 | 2.03 ± 0.037
GCUGUCACCGGUGCUUGGUACGUUAUAUUCAGCCGGUCUGAUGAGUCUCGUAUAAGACGAAACAGC [CGUAUA] | 0.0787 ± 0.09 | 1.93 ± 0.025 | 0.189 ± 0.17 | 1.983 ± 0.016
GCUGUCACCGGUGCUUGGUACGUUAUAUUCAGCCGGUCUGAUGAGUCUAGUCAAAGACGAAACAGC [AGUCAA] | 0.156 ± 0.066 | 1.962 ± 0.0074 | 0.225 ± 0.046 | 1.96 ± 0.053
GCUGUCACCGGUGCUUGGUACGUUAUAUUCAGCCGGUCUGAUGAGUCUGGUAGUAGACGAAACAGC [GGUAGU] | 0.312 ± 0.15 | 1.988 ± 0.0021 | 0.316 ± 0.16 | 2.01 ± 0.055
GCUGUCACCGGUGCUUGGUACGUUAUAUUCAGCCGGUCUGAUGAGUCUUGUCCAAGACGAAACAGC [UGUCCA] | 0.433 ± 0.12 | 2.02 ± 0.025 | 0.395 ± 0.04 | 2.024 ± 0.014
GCUGUCACCGGUGCUUGGUACGUUAUAUUCAGCCGGUCUGAUGAGUCUCGUCUAAGACGAAACAGC [CGUCUA] | -0.111 ± 0.073 | 2.0035 ± 0.0014 | 0.325 ± 0.29 | 2.033 ± 0.0082
GCUGUCACCGGUGCUUGGUACGUUAUAUUCAGCCGGUCUGAUGAGUCUUGUAGGAGACGAAACAGC [UGUAGG] | 0.342 ± 0.083 | 1.61 ± 0.018 | 0.855 ± 0.1 | 1.92 ± 0.033
GCUGUCACCGGUGCUUGGUACGUUAUAUUCAGCCGGUCUGAUGAGUCUUGUAGCAGACGAAACAGC [UGUAGC] | 0.389 ± 0.16 | 1.907 ± 0.01 | 0.362 ± 0.049 | 1.988 ± 0.016
GCUGUCACCGGUGCUUGGUACGUUAUAUUCAGCCGGUCUGAUGAGUCUGGUCCAAGACGAAACAGC [GGUCCA] | 0.532 ± 0.025 | 2.029 ± 0.0028 | 0.724 ± 0.15 | 2.01 ± 0.07
GCUGUCACCGGUGCUUGGUACGUUAUAUUCAGCCGGUCUGAUGAGUCUUGUACUAGACGAAACAGC [UGUACU] | 0.366 ± 0.027 | 1.99 ± 0.026 | 0.253 ± 0.17 | 2.021 ± 0.0023
GCUGUCACCGGUGCUUGGUACGUUAUAUUCAGCCGGUCUGAUGAGUCUAGUCGAAGACGAAACAGC [AGUCGA] | 0.3437 ± 0.0018 | 1.974 ± 0.012 | 0.506 ± 0.09 | 2.021 ± 0.0067
GCUGUCACCGGUGCUUGGUACGUUAUAUUCAGCCGGUCUGAUGAGUCUAGUCGUAGACGAAACAGC [AGUCGU] | 0.209 ± 0.14 | 1.979 ± 0.013 | -0.0314 ± 0.084 | 2.03 ± 0.029
GCUGUCACCGGUGCUUGGUACGUUAUAUUCAGCCGGUCUGAUGAGUCUAGUAUGAGACGAAACAGC [AGUAUG] | 0.41 ± 0.013 | 1.89 ± 0.022 | 0.586 ± 0.1 | 1.994 ± 0.019
GCUGUCACCGGUGCUUGGUACGUUAUAUUCAGCCGGUCUGAUGAGUCUAGUACGAGACGAAACAGC [AGUACG] | 0.0935 ± 0.062 | 1.935 ± 0.0077 | -0.00576 ± 0.14 | 2.03 ± 0.045
GCUGUCACCGGUGCUUGGUACGUUAUAUUCAGCCGGUCUGAUGAGUCUUGUCGUAGACGAAACAGC [UGUCGU] | 0.152 ± 0.076 | 1.95 ± 0.012 | 0.267 ± 0.017 | 2 ± 0.021
GCUGUCACCGGUGCUUGGUACGUUAUAUUCAGCCGGUCUGAUGAGUCUUGUCGGAGACGAAACAGC [UGUCGG] | 0.0192 ± 0.057 | 1.66 ± 0.015 | 0.166 ± 0.29 | 1.94 ± 0.043
